The results in this text go back to patent US20250026842A1.

This assay concerns the target pre-anti-drug antibodies (pre-ADAs) in individual serum samples taken from healthy humans. Nature of the assay: ELISA, coated sdAb, 40 healthy donor sera (1:5), anti-human lambda chain-HRP, OD415. In general terms: An ELISA detects its analyte on a solid surface through an enzyme-linked reagent.

B1: P2-2 (protein)
VH: HHHHHHGGGGSEVQLLESGGGLVQPGGSLRLSCAASGFTFAHETMVWVRQAPGKGLEWVSHIPPDGQDPFYADSVKGRFTISRDNSKNTLYLQMNSLRAEDTAVYHCALLPKRGPWFDYWGQGTLVTVSSA
As for B1, the percent of serum samples with detectable sdAb-reactive pre-ADAs was found to be 12.5%.

B2: P2-1 (protein)
VH: HHHHHHGGGGSEVQLLESGGGLVQPGGSLRLSCAASGFTFAHETMVWVRQAPGKGLEWVSHIPPDGQDPFYADSVKGRFTISRDNSKNTLYLQMNSLRAEDTAVYHCALLPKRGPWFDYWGQGTLVTVSS
With B2, the percent of serum samples with detectable sdAb-reactive pre-ADAs amounted to 57.5%.
